Molecular target: soluble recombinant TGF-β1 (UniProt P01137)
Experiment: cell-based or functional assay

TGF-beta dominant negative receptor (TGFβ DNR), sequence (P37173 23-194 limits assumed): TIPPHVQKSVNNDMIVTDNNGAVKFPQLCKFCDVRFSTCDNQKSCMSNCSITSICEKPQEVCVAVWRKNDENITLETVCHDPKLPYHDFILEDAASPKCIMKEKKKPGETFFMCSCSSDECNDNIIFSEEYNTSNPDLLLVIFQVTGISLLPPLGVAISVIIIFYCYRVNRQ
soluble recombinant TGF-β1, sequence (P01137 279-390 limits assumed): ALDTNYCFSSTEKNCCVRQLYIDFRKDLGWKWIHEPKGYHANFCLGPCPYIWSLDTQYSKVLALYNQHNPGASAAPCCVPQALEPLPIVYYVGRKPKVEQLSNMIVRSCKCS

Substance: TGF-beta dominant negative receptor (TGFβ DNR) (from UniProt P37173 23-194)
- pSMAD2 (MFI/µg protein), TGFβ +; CAR-DNR T cells; Donor 1 (MFI/µg protein): 2210
- pSMAD2 (MFI/µg protein), TGFβ +; Tri-2A T cells; Donor 1 (MFI/µg protein): 1970
- pSMAD2 (MFI/µg protein), TGFβ +; Tri-2A T cells; Donor 2 (MFI/µg protein): 2080
- pSMAD2 (MFI/µg protein), TGFβ +; Tri-2A T cells; Donor 3 (MFI/µg protein): 1730
- pSMAD2 (MFI/µg protein), TGFβ +; Tri-IRES T cells; Donor 1 (MFI/µg protein): 3240
- pSMAD2 (MFI/µg protein), TGFβ +; Tri-IRES T cells; Donor 2 (MFI/µg protein): 3400
- pSMAD2 (MFI/µg protein), TGFβ +; Tri-IRES T cells; Donor 3 (MFI/µg protein): 2270
- pSMAD2 (MFI/µg protein), TGFβ +; Tri-mSCV T cells; Donor 1 (MFI/µg protein): 2480
- pSMAD2 (MFI/µg protein), TGFβ +; Tri-mSCV T cells; Donor 2 (MFI/µg protein): 1720
- pSMAD2 (MFI/µg protein), TGFβ +; Tri-mSCV T cells; Donor 3 (MFI/µg protein): 1200
- pSMAD2/3 (MFI CAR+), TGFb +; CAR-DNR T cells; Donor 1: 86.9 MFI
- pSMAD2/3 (MFI CAR+), TGFb +; CAR-DNR T cells; Donor 2: 105 MFI
- pSMAD2/3 (MFI CAR+), TGFb +; CAR-DNR T cells; Donor 3: 106 MFI
- pSMAD2/3 (MFI CAR+), TGFb +; Tri-2A T cells; Donor 1: 106 MFI
- pSMAD2/3 (MFI CAR+), TGFb +; Tri-2A T cells; Donor 2: 208 MFI
- pSMAD2/3 (MFI CAR+), TGFb +; Tri-2A T cells; Donor 3: 189 MFI
- pSMAD2/3 (MFI CAR+), TGFb +; Tri-IRES T cells; Donor 1: 70.6 MFI
- pSMAD2/3 (MFI CAR+), TGFb +; Tri-IRES T cells; Donor 2: 89.7 MFI
- pSMAD2/3 (MFI CAR+), TGFb +; Tri-IRES T cells; Donor 3: 89.4 MFI
- pSMAD3 (MFI/µg protein), TGFβ +; CAR-DNR T cells; Donor 1 (MFI/µg protein): 621
- pSMAD3 (MFI/µg protein), TGFβ +; Tri-2A T cells; Donor 1 (MFI/µg protein): 561
- pSMAD3 (MFI/µg protein), TGFβ +; Tri-2A T cells; Donor 2 (MFI/µg protein): 488
- pSMAD3 (MFI/µg protein), TGFβ +; Tri-2A T cells; Donor 3 (MFI/µg protein): 405
- pSMAD3 (MFI/µg protein), TGFβ +; Tri-IRES T cells; Donor 1 (MFI/µg protein): 942
- pSMAD3 (MFI/µg protein), TGFβ +; Tri-IRES T cells; Donor 2 (MFI/µg protein): 788
- pSMAD3 (MFI/µg protein), TGFβ +; Tri-IRES T cells; Donor 3 (MFI/µg protein): 643
- pSMAD3 (MFI/µg protein), TGFβ +; Tri-mSCV T cells; Donor 1 (MFI/µg protein): 660
- pSMAD3 (MFI/µg protein), TGFβ +; Tri-mSCV T cells; Donor 2 (MFI/µg protein): 460
- pSMAD3 (MFI/µg protein), TGFβ +; Tri-mSCV T cells; Donor 3 (MFI/µg protein): 377
